Target: CDK2 (Homo sapiens, UniProt P24941)
Assay: SPR

Binder: LAALS (60 uM ATP) [LAALS peptide]
- Kd: 61 µM
